Where no end group is shown, it is not given here. [ ]: non-standard residue; d: D form.

Results on one substance are retold here after US9809627B2, “Cyclized transthyretin peptide and methods of use therefor” (Wisconsin Alumni Research Foundation, priority 2014, dated 2017).

For series [1], the target named is T1, Aβ (1-40) (Homo sapiens, UniProt P05067).
T1 construct: Aβ (1-40) was purchased from Anaspec, Inc. (Fremont, Calif.) as lyophilized powder; purchased Anaspec, Inc. (Fremont, Calif.)
Put plainly: Dynamic light scattering of Aβ aggregate growth. It counts as biochemical. As to conditions: 140 μM Aβ. As for the experimental part:
(§1) Aβ (1-40) was purchased from Anaspec, Inc. (Fremont, Calif.) as lyophilized powder. For dynamic light scattering, ThT fluorescence assay, TEM, NTA measurement and filtration/sedimentation assay, Aβ was dissolved in 50% ACN, re-lyophilized, and reconstituted in 8M urea at 12 mg/mL. Aβ stock was then aliquoted, snap-frozen in ethanol with dry ice, and stored at −80° C. For PICUP and proteolytic fragmentation analysis, lyophilized Aβ was dissolved in prechilled hexafluoroisopropanol (HFIP, Acros Organics, Geel, Belgium), aliquoted, dried and stored at −20° C. as previously described (Cho et al., 2014). Aβ sample was prepared right before use by dissolving dried peptides in 50 mM NaOH and diluting into phosphate-buffered saline (PBSA) (10 mM Na2HPO4/NaH2PO4, 150 mM NaCL and 0.02% NaN3 (pH 7.4)) to 30 μM as previously described (Cho et al., 2014).
Aβ stock in 8M urea prepared as stated above was thawed and sonicated for 2 min before being diluted into PBSA. Aβ alone (140 μM) or mixed with peptides (14 μM) was filtered through […] filter directly into a light scattering cuvette and placed into a bath of the index-matching solvent decahydronaphthalene with temperature controlled to 37° C. Light scattering data were collected using a Brookhaven BI-200SM system (Brookhaven Instruments Corp., Holtsville, N.Y.) and an Innova 90C-5 argon laser (Coherent, Santa Clara, Calif.) operating at 488 nm and 150 mW. The average scattering intensity at 90° was measured over 10 hr and data were normalized to the total mass concentration. The z-averaged hydrodynamic diameter was determined from the autocorrelation function using the method of cummulants.

Series [2] can be described thus: Peptide self-aggregation by light scattering. The class given is physicochemical. As to conditions: 80 μM, 37° C., after 1 hr of incubation. As for the experimental part: To further probe for self-aggregation, G16, LG3, and CG3 were incubated at 80 μM at 37° C. and analyzed by light scattering.
The test system of series [3] is primary cortical neuronal cells. Put plainly: In vitro cellular toxicity of Aβ (1-42), MTS assay. The settings on record: 10 μM peptide, 10 μM Aβ. The class given is cell-based, mice. As for the experimental part:
Aβ toxicity was assessed as described in detail previously (Yang et al., 2013; Cho et al., 2014). Briefly, the primary cortical neuronal cells were cultured from embryonic 15.5 day mice and were maintained in neurobasal media till they are matured. Aβ (1-42) (American Peptide, Sunnyvale, Calif.) at 1 mg/mL in PBS was diluted to 10 μM without or with peptides as previously described (Cho et al., 2014). At 6 days in vitro (DIV), the cells were treated with either Aβ alone or Aβ incubated with different doses of mTTR and peptides. Appropriate vehicle and controls were run along with the treatments. At 8 DIV, the neurons were incubated with MTS reagent (Promega) as per manufacturer protocol for 2-3 hrs and absorbance was measured at 490 nm.

Series [4] is described as follows: Peptide self-association by PICUP cross-linking and gel electrophoresis. The settings on record: PICUP cross-linking, gel electrophoresis. It counts as physicochemical. As for the experimental part: Peptides were also cross-linked by PICUP and analyzed for self-association. Twenty microliters of peptides at 36 μM in PBSA was incubated for 1 hr at 37° C. and cross-linked. Cross-linked samples were then heated at 95° C. for 5 min and separated on a 10-20% Tris-Tricine gradient gel. Peptides were visualized by silver staining (SilverStain Kit, Pierce, Rockford, Ill.).

Series [5] addresses T1, Aβ (1-40). Kind of series: Photoinduced cross-linking (PICUP) of Aβ and peptides. It counts as binding. As for the experimental part: as §1
Aβ prepared with HFIP/NaOH treatment at 30 μM as described was mixed with peptides to a final concentration of 24 μM Aβ and 2.4 μM peptides. Aβ stock was used immediately (freshly prepared) or after incubation for 24 hr at 37° C. (1 day pre-aggregated). Samples of Aβ with and without peptides were incubated for 1 hr at 37° C. and cross-linked by photo-induced cross-linking method as previously described (Cho et al., 2014). Cross-linked samples were then separated on a 10-20% Tris-Tricine gradient gel (Iinvotrogen, Carlsbad, Calif.), transferred onto a 0.2 μm poly(vinylidene difluoride) (PVDF) membrane and detected by monoclonal mouse anti-Aβ antibody 4G8 (Covance, Princeton, N.J.) as previously described (Cho et al., 2014).

In series [6] the target is T1, Aβ (1-40). Kind of series: Filtration/sedimentation assay of Aβ aggregation. The class given is biochemical. As for the experimental part:
as §1
Aβ alone (30 μM) or with CG3 (3 μM) was prepared in PBSA and incubated for 24 hr at 37° C. For filtration, 175 μL of sample was filtered through 0.45 μm filter. For sedimentation, 100 μL of sample was transferred onto a separate tube and centrifuged for 30 min at 19,500 ref. The supernatant (80%) was removed. Concentrations of untreated, filtered, and centrifuged samples were measured by BCA assay (Pierce).

Series [7] concerns the target T1, Aβ (1-40). Kind of series: Thioflavin T (ThT) fluorescence assay of Aβ aggregation. The class given is biochemical. The settings on record: 28 μM Aβ, 2.8 μM peptide. As for the experimental part: as §1
ThT stock solutions were prepared in PBSA and filtered through 0.22 μm filter. The concentration of ThT was measured using an extinction coefficient of 26,620 M^−1 cm^−1 at 416 nm and the stock solution was diluted to 10 μM in PBSA prior to the measurement. Aβ alone (28 μM) and with peptides (2.8 μM) or mTTR (2.8 μM) were prepared in PBSA and incubated for 48 hr at 37° C. After 1, 5, 24 and 48 hr of incubation, 10 μL of each sample was mixed with 130 μL of 10 μM ThT and analyzed. ThT fluorescence emission was measured using a QuantaMaster spectrofluometer (PTI, Birmingham, N.J.), with excitation at 440 nm and emission spectra recorded from 460 to 500 nm. Three serial spectra were averaged for each sample and the background signal of ThT in PBSA was subtracted from the averaged data. Fluorescence intensity at a wavelength of 480 nm was compared.

Turning to “SKVVT^DPPRYTIAALLSPYSYSQ [CG3] (chain 1 SKVVT[dP]PRYTIAALLSPYSYSQ; chain 2 SKVVT[dP]PRYTIAALLSPYSYSQ; also: head-to-tail to a chain's N/C-terminus) [cyclic 22-mer of TTR residues 104-123 grafted onto DPro-Pro template]”, in the series with Aβ (1-40) [1] (14 μM peptide), the “effect on Aβ aggregation (hydrodynamic diameter, total scattered intensity)” value was “increased the size of aggregates of Aβ” and the “intensity of scattered light of Aβ-peptide mixture” value is “enhanced the intensity of scattered light similarly”. Besides, the “mean hydrodynamic size of Aβ-peptide mixture” value with Aβ (1-40) [1] (after 5 hr, 10:1 molar excess of Aβ, 37° C.) amounted to 1000 nm. Besides, in series [2], the “light scattering of peptide alone” value is given as “scattered light above background” and the “scattering intensity relative to G16” value is “about 5 times”. Moreover, in series [3], the “protection against Aβ toxicity” value is given as “significant protection”. For the same substance, the “self-association by PICUP” value in series [4] is given as “a fraction of CG3 forms a SDS-stable dimer”. In addition, the “interaction with freshly prepared versus pre-aggregated Aβ” value with Aβ (1-40) [5] (freshly prepared or 1 day pre-aggregated Aβ) is listed as “much less interaction with freshly prepared Aβ than with pre-aggregated Aβ”. The “interaction with Aβ (shift in cross-linked Aβ size distribution)” value in the series with Aβ (1-40) [5] (pre-aggregated Aβ, 10:1 molar excess of Aβ, Western blot 4G8) was “interact with Aβ”. Further, the “effect on fraction of Aβ aggregates removable by filtration or sedimentation” value in the series with Aβ (1-40) [6] is recorded as “reduce the fraction of Aβ aggregates that can be removed by filtration or sedimentation”. Moreover, the “fraction of Aβ-peptide mixture filterable through 0.45 μm filter” value with Aβ (1-40) [6] (30 μM Aβ, 10:1 Aβ excess, at either 0 or 24 hours, 37° C.) was “about 90%”. The “fraction of Aβ-peptide mixture remaining in solution after centrifugation” value with Aβ (1-40) [6] (after 24 hours, centrifuged 30 min, supernatant) is given as 91%. The “ThT fluorescence intensity of Aβ with peptide” value with Aβ (1-40) [7] (after 5 hr) is given as “remained low”. Besides, in the series with Aβ (1-40) [7] (after 24 hr), the “ThT fluorescence intensity of Aβ with peptide” value is “fluorescence still remained low”.
